The results in this text go back to PMC5098251 (Scientific Reports, 2016).

Positions count from the first letter of the chain named. Numbers in names are those of the source. A value given as a limit tells only on which side of the number the result lay.

Sequences and labels used below:
B1: A07a IgG (antibody, V domains shown)
VH: QLQLQESGPGLVKPSETLSLTCTVPGASISANSYYGVWVRQSPGKGLEWVGSIAYRGNSNSGSTYYNPSLKGRATVSVDTSKNQVSLRLTSVTAADTALYYCARRQLLDDGTGYQWAAFDNWDQGTMVTVSS
VL: QSVLTQPPSVSEAPRQTVTISCSGNSFNIGRYPVNWYQQLPGKAPKLLIYSNNLRFSGVSDRFSGSKSGTSASLAIRDLLSEDEADYYCSTWDDTLKGWVFGGGTKVTVL
notes: numbers count on: Kabat numbering; IgG heavy constant region; light constant region; IgG made from the scFv A07a
B2: E09 IgG (antibody, V domains shown)
VH: B1 VH with P25S, G72S, N121V, D123G
VL: B1 VL with S51Y
notes: VH: as the VH of m6 (E09); IgG heavy constant region; VL: as the VL of m6 (E09); light constant region; IgG; also called parent
B3: R4aS IgG (antibody, V domains shown)
VH: B1 VH with G72S
VL: B1 VL with I29T, F56L, K97E
notes: numbers count on: Kabat numbering; IgG heavy constant region; light constant region; IgG; also called antibody R4aS
B4: Ep6b_B01 IgG (antibody, V domains shown)
VH: B1 VH with P25S, G72S, T80S, N121V, D123G
VL: B1 VL with F27S, N52D, S60P, S71T, K97E
notes: numbers count on: Kabat numbering; IgG heavy constant region; light constant region; IgG
B5: SNAP-E09_Y58S scFv-HA (scFv, V domains shown)
VH: B1 VH with P25S, Y65S, G72S, N121V, D123G
VL: B1 VL with S51Y
notes: whole scFv (VH, linker, VL) as in m3 (E09) with Y58S; not shown: SNAP-tag, N-terminal, kept; HA, C-terminal, kept
B6: SNAP-A09a scFv-HA (scFv, V domains shown)
VH: B1 VH with S7P, V12T, N32D, G72S, N121V, D123G
VL: B1 VL with S51H
notes: numbers count on: Kabat numbering; scFv linker, as in m6; On-bead form of m13; not shown: SNAP-tag, N-terminal, kept; HA, C-terminal, kept
B7: SNAP-A01b scFv-HA (scFv, V domains shown)
VH: B1 VH with V39I, G72S, Q84R, N121V, D123G, S131P
VL: B1 VL with A13V, S51H
notes: numbers count on: Kabat numbering; scFv linker, as in m6; On-bead form of m10; not shown: SNAP-tag, N-terminal, kept; HA, C-terminal, kept
B8: SNAP-A11b scFv-HA (scFv, V domains shown)
VH: B1 VH with G72S, N121V, D123G, S132G
VL: B1 VL with I29T, F56L, K97E
notes: numbers count on: Kabat numbering; scFv linker, as in m6; On-bead form of m14; not shown: SNAP-tag, N-terminal, kept; HA, C-terminal, kept
B9: SNAP-A03a scFv-HA (scFv, V domains shown)
VH: B1 VH with K45R, G72S, Q106R
VL: B1 VL with P7S, I29T, F56L, K97E
notes: numbers count on: Kabat numbering; scFv linker, as in m6; On-bead form of m11; not shown: SNAP-tag, N-terminal, kept; HA, C-terminal, kept
B10: SNAP-Ep6b_B01 scFv-HA (scFv, V domains shown)
VH: B1 VH with P25S, G72S, T80S, N121V, D123G
VL: B1 VL with F27S, N52D, S60P, S71T, K97E
notes: numbers count on: Kabat numbering; scFv linker, as in m6; not shown: SNAP-tag, N-terminal, kept; HA, C-terminal, kept
B11: SNAP-E09 scFv-HA (scFv, V domains shown)
VH: B1 VH with P25S, G72S, N121V, D123G
VL: B1 VL with S51Y
notes: VH: as the VH of m6 (E09); scFv linker, as in m6; VL: as the VL of m6 (E09); 47 kDa fusion; The parent vector pIVEX-SNAP-GFP holds the R30I mutant of the SNAP-tag; also called SNAP-scFv-HA; parent; source: in vitro translated (PURExpress), captured on BG-DNA-coated streptavidin beads; not shown: SNAP-tag, N-terminal, kept; HA, C-terminal, kept
B12: SNAP-A07a scFv-HA (scFv, V domains shown)
VH: B1 VH
VL: B1 VL
notes: numbers count on: Kabat numbering; scFv linker, as in m6; On-bead form of m15; not shown: SNAP-tag, N-terminal, kept; HA, C-terminal, kept
B13: A05a scFv (scFv, V domains shown)
VH: B1 VH with G8S, L20I, G72S, N121V, D123G
VL: B1 VL with S51H
notes: numbers count on: Kabat numbering; scFv linker, as in m6; Most abundant variant of round IV; the same as the Clade 2 consensus R4aH; also called R4aH
B14: A11b scFv (scFv, V domains shown)
VH: B1 VH with G72S, N121V, D123G, S132G
VL: B1 VL with I29T, F56L, K97E
notes: numbers count on: Kabat numbering; scFv linker, as in m6; Selected by BeSD, round IV
B15: A01b scFv (scFv, V domains shown)
VH: B1 VH with V39I, G72S, Q84R, N121V, D123G, S131P
VL: B1 VL with A13V, S51H
notes: as for B14
B16: A03a scFv (scFv, V domains shown)
VH: B1 VH with K45R, G72S, Q106R
VL: B1 VL with P7S, I29T, F56L, K97E
notes: as for B14
B17: anti-Fas receptor scFv E09 (scFv, V domains shown)
VH: B1 VH with P25S, G72S, N121V, D123G
VL: B1 VL with S51Y
notes: VH of E09; scFv linker; VL of E09; also called parent; wild-type E09
B18: A09a scFv (scFv, V domains shown)
VH: B1 VH with S7P, V12T, N32D, G72S, N121V, D123G
VL: B1 VL with S51H
notes: as for B14
B19: Ep6b_B01 scFv (scFv, V domains shown)
VH: B1 VH with P25S, G72S, T80S, N121V, D123G
VL: B1 VL with F27S, N52D, S60P, S71T, K97E
notes: numbers count on: Kabat numbering; scFv linker, as in m6
B20: E09 scFv with the single mutation VH S25P (scFv, V domains shown)
VH: B1 VH with G72S, N121V, D123G
VL: B1 VL with S51Y
notes: numbers count on: Kabat numbering; scFv linker, as in m6; VL: as the VL of m6 (E09); Made by site-directed mutagenesis of E09 in pCantab6
B21: E09 scFv with the single mutation VL Y50S (scFv, V domains shown)
VH: B1 VH with P25S, G72S, N121V, D123G
VL: B1 VL
notes: VH: as the VH of m6 (E09); scFv linker, as in m6; numbers count on: Kabat numbering; Made by site-directed mutagenesis of E09 in pCantab6
B22: A07a scFv (scFv, V domains shown)
VH: B1 VH
VL: B1 VL
B23: R4aS scFv (scFv, V domains shown)
VH: B1 VH with G72S
VL: B1 VL with I29T, F56L, K97E

The target in one experiment is T1, recombinant human FasR (Homo sapiens, UniProt P25445).
T1 construct: Fas receptor (FasR, CD95), human, recombinant; The FasR of the BLI and SPR experiments; Details are in Supplementary Protocols 8-10; also called recombinant FasR
T1 sequence (P25445 26-335): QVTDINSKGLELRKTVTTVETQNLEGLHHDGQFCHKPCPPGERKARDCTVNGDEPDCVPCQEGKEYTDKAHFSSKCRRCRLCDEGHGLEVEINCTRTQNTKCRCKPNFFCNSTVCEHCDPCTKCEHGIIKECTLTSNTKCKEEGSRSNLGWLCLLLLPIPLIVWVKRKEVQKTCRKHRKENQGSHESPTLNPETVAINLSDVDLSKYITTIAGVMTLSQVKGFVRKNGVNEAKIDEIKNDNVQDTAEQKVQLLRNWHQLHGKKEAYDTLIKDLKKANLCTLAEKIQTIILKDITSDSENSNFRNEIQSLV
In words: SPR; BIAcore T100; low density IgG-coated chip surface, recombinant human FasR; 1:1 Langmuir model; at least in duplicate. To be noted: both partners purified.
What is called koff is a measure of how fast the partners let go of each other. As usually defined, the kon is the rate constant with which the complex forms. Consider B1, for which the Kd was determined as 0.29 nM, the off-rate (koff) was found to be 6.7e-05 s⁻¹ and the kon was determined as 230000 M⁻¹ s⁻¹.

Consider B2, for which the Kd stood at 13.7 nM, the off-rate constant (koff) was 0.00239 s⁻¹ and the kon was determined as 174000 M⁻¹ s⁻¹.

B3: the Kd is 0.14 nM, the off-rate constant (koff) was 3.8e-05 s⁻¹ and the kon was found to be 282000 M⁻¹ s⁻¹.

As for B4, the Kd is 0.06 nM, the koff was determined as 4.4e-05 s⁻¹ and the on-rate constant (kon) was determined as 746000 M⁻¹ s⁻¹.

A further experiment deals with T2, FasR-Fc (Fc-fused Fas receptor) (Homo sapiens, UniProt P25445).
T2 construct: Fas receptor (FasR, CD95), human; also called Fas-Fc; CD95; source: bought: R&D Systems
T2 sequence (P25445 26-173): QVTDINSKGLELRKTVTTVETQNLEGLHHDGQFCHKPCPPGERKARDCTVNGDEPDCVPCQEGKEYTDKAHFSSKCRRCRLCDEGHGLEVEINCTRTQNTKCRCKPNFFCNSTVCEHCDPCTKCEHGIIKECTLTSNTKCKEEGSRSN
Nature of the experiment: on-bead binding assay read by flow cytometry (Bead Surface Display); SNAP-scFv-HA made by in vitro transcription/translation and held on streptavidin beads through BG-DNA anchors; beads incubated 1 h at room temperature with FasR-Fc (1 nM unless stated; 1, 10 and 30 nM in Fig. 2B), then with DyLight488-labelled goat anti-Fc; 1.5% marvel in PBS, washes with PBS and 0.05% Tween 20. The following applies: one partner purified.
Turning to B5, the binding result was “binds”.

On to B6, for which the “fold increase of MFS over E09” value was more than 2 fold.

Regarding B7, the “fold increase of MFS over E09” value is more than 2 fold.

Consider B8, for which the “fold increase of MFS over E09” value is more than 2 fold.

Consider B9, for which the “fold increase of MFS over E09” value is more than 2 fold.

Turning to B10, the “fold MFS over E09_Y58S (1 nM antigen)” value came out at 8.4 fold and the “fold MFS over E09_Y58S (30 nM antigen)” value came out at 1.8 fold.

Regarding B11, the “fold signal increase over the background (FasR at 1 nM)” value was more than 1250 fold.

As for B12, the “fold increase of MFS over E09” value is more than 2 fold.

In another experiment the target is T2, FasR-Fc (Fc-fused Fas receptor). In words: on-bead equilibrium titration read by flow cytometry (Bead Surface Display); apparent; Fas-Fc titrated against beads displaying SNAP-scFv-HA; normalised median fluorescence fitted to a saturation binding curve. The following applies: one partner purified. On the technique in general: In flow cytometry, cells or beads pass a laser one at a time.
For the molecule B11, the Kd came to 4.3 ± 0.3 nM.

The target of another experiment is T1, recombinant human FasR. Nature of the experiment: BLI; Octet Red384; recombinant human FasR; 1:1 Langmuir model; at least in duplicate; who was immobilised is not told (Supplementary Protocols 8-10). To be noted: both partners purified. On the technique in general: BLI is a label-free optical method that tracks binding on a fibre tip over time.
As to B1, the Kd is 1.02 nM, the off-rate constant (koff) came to 0.000171 s⁻¹ and the on-rate (kon) was determined as 277000 M⁻¹ s⁻¹.

Regarding B13, the Kd was 2.89 nM, the koff stood at 0.00039 s⁻¹ and the kon turned out to be 153000 M⁻¹ s⁻¹.

With B14, the Kd worked out at 1.09 nM, the koff was found to be 0.000111 s⁻¹ and the on-rate (kon) turned out to be 130000 M⁻¹ s⁻¹.

B15: the Kd stood at 2.15 nM, the koff is 0.000272 s⁻¹ and the on-rate constant (kon) stood at 168000 M⁻¹ s⁻¹.

For the molecule B16, the Kd worked out at 1.09 nM, the koff is 0.000181 s⁻¹ and the on-rate (kon) was determined as 240000 M⁻¹ s⁻¹.

As to B17, the Kd was found to be 7.6 nM, the koff was 0.000956 s⁻¹ and the on-rate (kon) stood at 236000 M⁻¹ s⁻¹.

On to B18, for which the Kd was 2.63 nM, the koff was 0.00029 s⁻¹ and the on-rate constant (kon) was determined as 147000 M⁻¹ s⁻¹.

In the case of B2, the Kd stood at 15.7 nM, the koff was 0.00266 s⁻¹ and the kon turned out to be 236000 M⁻¹ s⁻¹.

For the molecule B3, the Kd was 0.09 nM, the koff was found to be 1.2e-05 s⁻¹ and the kon came to 249000 M⁻¹ s⁻¹.

B19: the Kd is 0.71 nM, the dissociation rate constant (koff) amounted to 0.000125 s⁻¹ and the kon came out at 214000 M⁻¹ s⁻¹.

With B4, the Kd came to 0.23 nM, the koff turned out to be 5.9e-05 s⁻¹ and the on-rate constant (kon) stood at 402000 M⁻¹ s⁻¹.

Another experiment deals with T1, recombinant human FasR. The description is as above. To be noted: both partners purified. This is another data set of the same source.
For the molecule B20, the “fold increase in affinity over the parent scFv E09 (Kd)” value amounted to 4 fold.

For B21, the “fold increase in affinity over the parent scFv E09 (Kd)” value is 4 fold.

The target of a further experiment is T1, recombinant human FasR. Described as above.
Conditions: not given
For the molecule B22, the Kd is 0.4 nM, the off-rate constant (koff) came out at 5.6e-05 s⁻¹ and the kon is 162000 M⁻¹ s⁻¹.

On to B23, for which the Kd was determined as 0.38 nM, the koff came to 4.5e-05 s⁻¹ and the association rate constant (kon) was found to be 117000 M⁻¹ s⁻¹.
